In article PMC6289461, “Mek1 coordinates meiotic progression with DNA break repair by directly phosphorylating and inhibiting the yeast pachytene exit regulator Ndt80”:

T1: 6xHis-Ndt80 5D DBD (Saccharomyces cerevisiae, UniProt P38830 1-340, S24D;S205D;T211D;S327D;S329D)
T1 sequence: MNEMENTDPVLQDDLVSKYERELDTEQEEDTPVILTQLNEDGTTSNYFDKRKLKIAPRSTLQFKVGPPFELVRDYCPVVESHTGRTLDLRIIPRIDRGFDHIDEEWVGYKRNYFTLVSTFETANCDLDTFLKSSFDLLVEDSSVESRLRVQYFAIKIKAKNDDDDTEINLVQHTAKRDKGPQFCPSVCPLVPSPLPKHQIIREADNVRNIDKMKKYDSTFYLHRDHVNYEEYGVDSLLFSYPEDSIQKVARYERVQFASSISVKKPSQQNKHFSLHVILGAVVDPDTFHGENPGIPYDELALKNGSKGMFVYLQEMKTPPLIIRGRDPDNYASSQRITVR

B1: Cy3-MSE (SPS4 MSE duplex) (dsDNA)
DNA 1: ATTGACGCGCGCCACAAAAACGTATCATT
DNA 2: AATGATACGTTTTTGTGGCGCGCGTCAAT
B2: Cy5-Scr duplex (dsDNA)
DNA 1: ATTGACGCGGCTTCATCTCACGTATCATT
DNA 2: AATGATACGTGAGATGAAGCCGCGTCAAT

Biological target: T1, 6xHis-Ndt80 5D DBD
Assay: EMSA; 50 nM DBD, 50 nM duplex; EMSA: 10 mM Tris-HCl pH 7.5, 40 mM NaCl, 4 mM MgCl2, 6% glycerol, 10 mg/ml BSA, 10 ug/ml sonicated salmon sperm DNA; 20 ul, room temperature, 30 min; 6% PAGE in 0.5X TBE
Conditions: protein: recombinant, tags: N-terminal 6xHis (pET-28a), blunt

Row | Binder | binding result (label: 5' Cy3 on strand 1) | binding result (label: 5' Cy5 on strand 1)
1 | B1 | no binding | –
2 | B2 | – | no binding
